{"source": "paper PMC10653114", "origin": "cited, not measured here", "key": {"Asp39": {"target": "Asp39 (UniProt position 413, PVDGWDLTFSF)", "conditions": "298 K; Conc. 0.10 (unit not given; K+/Cl–)"}, "Lys12": {"target": "Lys12 (UniProt position 16, KGIFEKYAAKE)", "conditions": "300 K; Conc. 0.00 (unit not given; Na+/Cl–); apo (Ca2+-free), inferred from the apo structure 1CLB used"}, "Lys16": {"target": "Lys16 (UniProt position 20, EKYAAKEGDPN)", "conditions": "300 K; Conc. 0.00 (unit not given; Na+/Cl–); apo (Ca2+-free), inferred from the apo structure 1CLB used"}, "Lys25": {"target": "Lys25 (UniProt position 29, PNQLSKEELKL)", "conditions": "300 K; Conc. 0.00 (unit not given; Na+/Cl–); apo (Ca2+-free), inferred from the apo structure 1CLB used"}, "Lys29": {"target": "Lys29 (UniProt position 33, SKEELKLLLQT)", "conditions": "300 K; Conc. 0.00 (unit not given; Na+/Cl–); apo (Ca2+-free), inferred from the apo structure 1CLB used"}, "Lys41 [1]": {"target": "Lys41 (UniProt position 45, FPSLLKGPSTL)", "conditions": "300 K; Conc. 0.00 (unit not given; Na+/Cl–); apo (Ca2+-free), inferred from the apo structure 1CLB used"}, "Lys55": {"target": "Lys55 (UniProt position 59, FEELDKNGDGE)", "conditions": "300 K; Conc. 0.00 (unit not given; Na+/Cl–); apo (Ca2+-free), inferred from the apo structure 1CLB used"}, "Lys7": {"target": "Lys7 (UniProt position 11, SPEELKGIFEK)", "conditions": "300 K; Conc. 0.00 (unit not given; Na+/Cl–); apo (Ca2+-free), inferred from the apo structure 1CLB used"}, "Lys71": {"target": "Lys71 (UniProt position 75, FQVLVKKISQ-)", "conditions": "300 K; Conc. 0.00 (unit not given; Na+/Cl–); apo (Ca2+-free), inferred from the apo structure 1CLB used"}, "Lys72": {"target": "Lys72 (UniProt position 76, QVLVKKISQ--)", "conditions": "300 K; Conc. 0.00 (unit not given; Na+/Cl–); apo (Ca2+-free), inferred from the apo structure 1CLB used"}, "Asp3": {"target": "Asp3 (UniProt position 38, KAQRPDFCLEP)", "assay": "NMR (only per the titles of cited refs 78 and 79; not given)", "conditions": "308 K; Conc. 0.0 (unit not given; Na+/Cl– counter-ions in the simulation)"}, "Asp50": {"target": "Asp50 (UniProt position 85, FKSAEDCMRTC)", "assay": "NMR (only per the titles of cited refs 78 and 79; not given)", "conditions": "308 K; Conc. 0.0 (unit not given; Na+/Cl– counter-ions in the simulation)"}, "Glu49": {"target": "Glu49 (UniProt position 84, NFKSAEDCMRT)", "assay": "NMR (only per the titles of cited refs 78 and 79; not given)", "conditions": "308 K; Conc. 0.0 (unit not given; Na+/Cl– counter-ions in the simulation)"}, "Glu7": {"target": "Glu7 (UniProt position 42, PDFCLEPPYTG)", "assay": "NMR (only per the titles of cited refs 78 and 79; not given)", "conditions": "308 K; Conc. 0.0 (unit not given; Na+/Cl– counter-ions in the simulation)"}, "Lys15": {"target": "Lys15 (UniProt position 50, YTGPCKARIIR)", "assay": "NMR (only per the titles of cited refs 78 and 79; not given)", "conditions": "308 K; Conc. 0.0 (unit not given; Na+/Cl– counter-ions in the simulation)"}, "Lys26": {"target": "Lys26 (UniProt position 61, YFYNAKAGLCQ)", "assay": "NMR (only per the titles of cited refs 78 and 79; not given)", "conditions": "308 K; Conc. 0.0 (unit not given; Na+/Cl– counter-ions in the simulation)"}, "Lys41 [2]": {"target": "Lys41 (UniProt position 76, GGCRAKRNNFK)", "assay": "NMR (only per the titles of cited refs 78 and 79; not given)", "conditions": "308 K; Conc. 0.0 (unit not given; Na+/Cl– counter-ions in the simulation)"}, "Lys46": {"target": "Lys46 (UniProt position 81, KRNNFKSAEDC)", "assay": "NMR (only per the titles of cited refs 78 and 79; not given)", "conditions": "308 K; Conc. 0.0 (unit not given; Na+/Cl– counter-ions in the simulation)"}, "Asp17": {"target": "Asp17 (UniProt position 17, PPEATDTLNLI)", "conditions": "295 K; Conc. 0.10 (unit not given; Na+/Cl–)"}, "Asp25": {"target": "Asp25 (UniProt position 25, NLIASDGPFPY)", "conditions": "295 K; Conc. 0.10 (unit not given; Na+/Cl–)"}, "Asp33": {"target": "Asp33 (UniProt position 33, FPYSQDGVVFQ)", "conditions": "295 K; Conc. 0.10 (unit not given; Na+/Cl–)"}, "Asp79": {"target": "Asp79 (UniProt position 79, EATQEDYYTGD)", "conditions": "295 K; Conc. 0.10 (unit not given; Na+/Cl–)"}, "Asp84": {"target": "Asp84 (UniProt position 84, DYYTGDHYATF)", "conditions": "295 K; Conc. 0.10 (unit not given; Na+/Cl–)"}, "Asp93 [3]": {"target": "Asp93 (UniProt position 93, TFSLIDQTC--)", "conditions": "295 K; Conc. 0.10 (unit not given; Na+/Cl–)"}, "Glu14": {"target": "Glu14 (UniProt position 14, SALPPEATDTL)", "conditions": "295 K; Conc. 0.10 (unit not given; Na+/Cl–)"}, "Glu41": {"target": "Glu41 (UniProt position 41, VFQNRESVLPT)", "conditions": "295 K; Conc. 0.10 (unit not given; Na+/Cl–)"}, "Glu54": {"target": "Glu54 (UniProt position 54, YGYYHEYTVIT)", "conditions": "295 K; Conc. 0.10 (unit not given; Na+/Cl–)"}, "Glu74": {"target": "Glu74 (UniProt position 74, RIITGEATQED)", "conditions": "295 K; Conc. 0.10 (unit not given; Na+/Cl–)"}, "Glu78": {"target": "Glu78 (UniProt position 78, GEATQEDYYTG)", "conditions": "295 K; Conc. 0.10 (unit not given; Na+/Cl–)"}, "Asp101": {"target": "Asp101 (UniProt position 148, IYKTTDHYQTF)", "conditions": "298 K; Conc. 0.0 (unit not given; Na+/Cl–)"}, "Asp12": {"target": "Asp12 (UniProt position 59, FDGVADYLQTY)", "conditions": "298 K; Conc. 0.0 (unit not given; Na+/Cl–)"}, "Asp22": {"target": "Asp22 (UniProt position 69, YHKLPDNYITK)", "conditions": "298 K; Conc. 0.0 (unit not given; Na+/Cl–)"}, "Asp44": {"target": "Asp44 (UniProt position 91, KGNLADVAPGK)", "conditions": "298 K; Conc. 0.0 (unit not given; Na+/Cl–)"}, "Asp54": {"target": "Asp54 (UniProt position 101, KSIGGDIFSNR)", "conditions": "298 K; Conc. 0.0 (unit not given; Na+/Cl–)"}, "Asp75": {"target": "Asp75 (UniProt position 122, TWREADINYTS)", "conditions": "298 K; Conc. 0.0 (unit not given; Na+/Cl–)"}, "Asp8": {"target": "Asp8 (UniProt position 55, VINTFDGVADY)", "conditions": "298 K; Conc. 0.0 (unit not given; Na+/Cl–)"}, "Asp86": {"target": "Asp86 (UniProt position 133, GFRNSDRILYS)", "conditions": "298 K; Conc. 0.0 (unit not given; Na+/Cl–)"}, "Asp93 [4]": {"target": "Asp93 (UniProt position 140, ILYSSDWLIYK)", "conditions": "298 K; Conc. 0.0 (unit not given; Na+/Cl–)"}, "Glu29": {"target": "Glu29 (UniProt position 76, YITKSEAQALG)", "conditions": "298 K; Conc. 0.0 (unit not given; Na+/Cl–)"}, "Glu60": {"target": "Glu60 (UniProt position 107, IFSNREGKLPG)", "conditions": "298 K; Conc. 0.0 (unit not given; Na+/Cl–)"}, "Glu73": {"target": "Glu73 (UniProt position 120, GRTWREADINY)", "conditions": "298 K; Conc. 0.0 (unit not given; Na+/Cl–)"}}}
{"substance": "Highly charge-depleted protein (PDB 6QFS), T39D variant (Cellulomonas fimi (parent domain; not stated in the article); T39D (on the 6QFS charge-depleted background; background substitutions not stated))", "values": [{"measurement": "pKa", "setting": "Asp39", "result": 5}]}
{"substance": "Calbindin D9k (apo) (Bos taurus)", "values": [{"measurement": "pKa", "setting": "Lys12", "result": 12.02}, {"measurement": "pKa", "setting": "Lys16", "result": 11.90}, {"measurement": "pKa", "setting": "Lys25", "result": 13.21}, {"measurement": "pKa", "setting": "Lys29", "result": 11.81}, {"measurement": "pKa", "setting": "Lys41 [1]", "result": 11.02}, {"measurement": "pKa", "setting": "Lys55", "result": 12.95}, {"measurement": "pKa", "setting": "Lys7", "result": 12.53}, {"measurement": "pKa", "setting": "Lys71", "result": 11.22}, {"measurement": "pKa", "setting": "Lys72", "result": 11.95}]}
{"substance": "Bovine pancreatic trypsin inhibitor (BPTI) (Bos taurus)", "values": [{"measurement": "pKa", "setting": "Asp3", "result": "3.25 ± 0.15"}, {"measurement": "pKa", "setting": "Asp50", "result": "3.20 ± 0.20"}, {"measurement": "pKa", "setting": "Glu49", "result": "3.75 ± 0.05"}, {"measurement": "pKa", "setting": "Glu7", "result": "3.65 ± 0.05"}, {"measurement": "pKa", "setting": "Lys15", "result": 10.60}, {"measurement": "pKa", "setting": "Lys26", "result": 10.60}, {"measurement": "pKa", "setting": "Lys41 [2]", "result": 11.20}, {"measurement": "pKa", "setting": "Lys46", "result": 10.30}]}
{"substance": "Ribonuclease Sa (Streptomyces aureofaciens)", "values": [{"measurement": "pKa", "setting": "Asp17", "result": "3.72 ± 0.07"}, {"measurement": "pKa", "setting": "Asp25", "result": "4.87 ± 0.07"}, {"measurement": "pKa", "setting": "Asp33", "result": "2.39 ± 0.07"}, {"measurement": "pKa", "setting": "Asp79", "result": "7.37 ± 0.07"}, {"measurement": "pKa", "setting": "Asp84", "result": "3.01 ± 0.07"}, {"measurement": "pKa", "setting": "Asp93 [3]", "result": "3.09 ± 0.07"}, {"measurement": "pKa", "setting": "Glu14", "result": "5.02 ± 0.07"}, {"measurement": "pKa", "setting": "Glu41", "result": "4.14 ± 0.07"}, {"measurement": "pKa", "setting": "Glu54", "result": "3.42 ± 0.07"}, {"measurement": "pKa", "setting": "Glu74", "result": "3.47 ± 0.07"}, {"measurement": "pKa", "setting": "Glu78", "result": "3.13 ± 0.07"}]}
{"substance": "Highly charge-depleted protein (PDB 6QFS), T39D/T66H variant (Cellulomonas fimi (parent domain; not stated in the article); T39D;T66H (on the 6QFS charge-depleted background; background substitutions not stated))", "values": [{"measurement": "pKa", "setting": "Asp39", "result": "4.07 ± 0.02"}]}
{"substance": "Barnase (Bacillus amyloliquefaciens)", "values": [{"measurement": "pKa", "setting": "Asp101", "result": "2.0 ± 0.2"}, {"measurement": "pKa", "setting": "Asp12", "result": "3.6 ± 0.2"}, {"measurement": "pKa", "setting": "Asp22", "result": "3.3 ± 0.1"}, {"measurement": "pKa", "setting": "Asp44", "result": "3.6 ± 0.1"}, {"measurement": "pKa", "setting": "Asp54", "result": "2.2 ± 0.3"}, {"measurement": "pKa", "setting": "Asp75", "result": "3.1 ± 0.2"}, {"measurement": "pKa", "setting": "Asp8", "result": "3.1 ± 0.2"}, {"measurement": "pKa", "setting": "Asp86", "result": "4.2 ± 0.1"}, {"measurement": "pKa", "setting": "Asp93 [4]", "result": "<2.0"}, {"measurement": "pKa", "setting": "Glu29", "result": "3.75 ± 0.05"}, {"measurement": "pKa", "setting": "Glu60", "result": "3.4 ± 0.1"}, {"measurement": "pKa", "setting": "Glu73", "result": "2.1 ± 0.1"}]}
